Values of other authors, collected in publication PMC2934757.

Molecular target: IGF-1 (Homo sapiens) (UniProt P05019)
Sequence of UniProt P05019 (P05019 49-118): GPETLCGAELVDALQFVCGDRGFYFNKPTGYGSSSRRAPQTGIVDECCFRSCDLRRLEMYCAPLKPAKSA

Kd: 7 nM
Substance: IGFBP-2 1-248 (from UniProt P18065)
